Experiment [1] has as its system PLCγ1 tSH2 domain (Src-mediated phosphorylation, Y^783). The experiment is described as follows: in vitro Src kinase assay, 35mer-enhanced PLCγ1 tSH2 phosphorylation. In kind it is biochemical. Particulars: 1.25–5.0 μM 12mer, 2.5 μM 35mer, 0.085 μM Src, 45 min, 37°C; pY783 Western blot. As to the method: Fig 7 The pK15 CT domain enhances Src-mediated phosphorylation of the PLCγ1 tSH2 domain. (A) The purified PLCγ1 tSH2 domain (0.6 μM) was incubated with limiting amounts (0.085 μM) of recombinant purified Src kinase expressed in insect cells in the presence of increasing concentrations (1.25–5 μM) of phosphorylated peptides representing the last 12 (pK15 12mer) or 35 (pK15 35mer) amino acids of the pK15 cytoplasmic domain for 1 hour at 37°C. The reaction was stopped using SDS sample buffer and analysed by SDS-PAGE and Western blot using an antibody to the PLCγ1 pY^783 residue (top panel) or to the His tag on the recombinant tSH2 domain (bottom panel). […]
To test the impact of a pK15 CT fragment (pK15 CT^N2) or phosphorylated pK15 peptides representing the last 12 (DDLp[…]) or 35 ([…]pYEEVLFRN) amino acids of pK15 CT on the Src-mediated phosphorylation of the PLCγ1 tSH2 domain, GST-pK15CT^N2 was first phosphorylated with Src in vitro as described in the preceding paragraph. […] The reaction mix was then analysed by Western blot using an antibody to the phosphorylated Y^783 in the linker region of the PLCγ1 tSH2 domain and an antibody to the 5x His tag. […] Following a 45 min incubation at 37°C, the reaction mixture was analysed by Western blot as above.

Experiment [2] deals with PLCγ1 SA and PLCγ1 tSH2, nSH2 R^586L mutant. The experiment is described as follows: AlphaLISA, SA and tSH2 R586L mutant. In kind it is binding. Particulars: phosphorylated; 300 nM each protein; versus wt PLCγ1 SA and tSH2. The method, then:
(§1) Fig 4 The PLCγ1 cSH2 domain is required for the binding of PLCγ1 to phosphorylated pK15 in vitro and may serve as a dominant-negative inhibitor. GST-fused pK15 cytoplasmic tail WT (A), or its truncated mutant N2 [51] (B), were phosphorylated in vitro by 2xStrep-Src and an AlphaLISA was performed with the indicated His-tagged fragments of PLCγ1. Mean and standard deviation from at least two independent experiments with two technical replicates each are depicted. GST fusion proteins of the N1 (C) or N2 (D) truncation mutants of the pK15 cytoplasmic tail were phosphorylated in vitro by 2xStrep-Src and their interaction with recombinant purified PLCγ1 tSH2 (tandem SH2) or SA (γ-specific array) domains was measured by AlphaLISA in the presence of increasing concentrations (300 nM, 600 nM, 900 nM, 1200 nM) of the purified PLCγ1 cSH2. […] After 48h lysates were collected and analysed by Western blot using an antibody to PLCγ1 pY^783 to assess the level of PLCγ1 phosphorylation. (F) The intensities of the pPLCγ1 bands shown in panel E were quantified by densitometry, normalized to the values obtained with the empty vector (EV) in the presence of pK15, and plotted as relative values. […]
(§2) His-tagged PLCγ1 (SA, tSH2 or the isolated SH2 domains) was incubated at room temperature with GST-tagged K15P or its mutants for 1 hour. […] Emission at 615 nm was detected on BioTek Synergy 2 plate reader.
Background: Bead proximity is the source of the signal in Alpha formats.

Experiment [3] deals with PLCγ1 R^586L and R^694L double mutant (DM) (SA and tSH2). The experiment is described as follows: AlphaLISA, SA and tSH2 double mutant. Particulars: phosphorylated; 300 nM each protein. It is filed as binding. As to the method:
as §1, §2

The test system of experiment [4] is PLCγ1 cSH2 R^694L. The experiment is described as follows: AlphaLISA, isolated PLCγ1 cSH2 R694L. Particulars: phosphorylated; 300 nM each protein. In kind it is binding. The method, then:
as §1, §2

Consider “DDLpYEEVLFPRN [pK15 12mer, phosphorylated peptide representing the last 12 amino acids of pK15 CT (DDLp…)]”, for which the “inhibition of 35mer-induced tSH2 phosphorylation” value in experiment [1] was “could inhibit the increased PLCγ1 tSH2 phosphorylation induced by the 35mer peptide”.

B1: pK15 CT^WT: pK15 cytoplasmic tail fused to GST at its N-terminal end, phosphorylated in vitro by Src (protein)
chain: SQLLNEVELQEVNRDPPNVFGYASILVSGAEESREPSPQPDQSGMSILRVDGGSAFRIDTAQAATQPTDDLYEEVLFPRN
modifications: tyrosine-phosphorylated in vitro by Src; sites not stated for this construct; left off: GST, N-terminal, kept
For the molecule B1, the “interaction (AlphaLISA)” value was “to a similar extent as wt PLCγ1 SA and PLCγ1 tSH2” in experiment [2]; “failed to interact” in experiment [3]; “abolished” in experiment [4].
